Molecular target: LUC^N-MLO2^CT-LW/RR (A. thaliana)
Assay: split reporter

luciferase activity (median): 4900 units/mm^2
Substance: LUC^C-CAM2 (pAMPAT-LUC^C) (from UniProt P0DH97 1-149) (natural protein)

— paper PMC9900802
